Data on one molecule can be found in article PMC3167817, “A Neutralizing RNA Aptamer against EGFR Causes Selective Apoptotic Cell Death”.

Data set [1] has as its target EC-EGFR (soluble extracellular domain), disulfide-linked homodimer (human, UniProt P00533 25-645). Put plainly: filter binding; Filter binding: 1 nM radiolabeled RNA, PBS + 0.01% BSA, 15 min, 37 C (5 mM DTT for monomer); CL4sc background subtracted; pull-down: 200 nM aptamer on A549 cells 30 min RT, lysis in 10 mM Tris-HCl pH 7.5, 200 mM NaCl, 5 mM EDTA, 0.1% Triton X-100. As to conditions: protein: commercial, chain copies: 2.

Data set [2] has as its target EC-ErbB3 (soluble extracellular domain), disulfide-linked homodimer (human, UniProt P21860 20-643). Put plainly: filter binding; 20 and 40 nM protein; Filter binding: 1 nM radiolabeled RNA, PBS + 0.01% BSA, 15 min, 37 C (5 mM DTT for monomer); CL4sc background subtracted; pull-down: 200 nM aptamer on A549 cells 30 min RT, lysis in 10 mM Tris-HCl pH 7.5, 200 mM NaCl, 5 mM EDTA, 0.1% Triton X-100. As to conditions: protein: commercial, chain copies: 2.

Sequence of EC-ErbB3 (soluble extracellular domain), disulfide-linked homodimer (P21860 20-643): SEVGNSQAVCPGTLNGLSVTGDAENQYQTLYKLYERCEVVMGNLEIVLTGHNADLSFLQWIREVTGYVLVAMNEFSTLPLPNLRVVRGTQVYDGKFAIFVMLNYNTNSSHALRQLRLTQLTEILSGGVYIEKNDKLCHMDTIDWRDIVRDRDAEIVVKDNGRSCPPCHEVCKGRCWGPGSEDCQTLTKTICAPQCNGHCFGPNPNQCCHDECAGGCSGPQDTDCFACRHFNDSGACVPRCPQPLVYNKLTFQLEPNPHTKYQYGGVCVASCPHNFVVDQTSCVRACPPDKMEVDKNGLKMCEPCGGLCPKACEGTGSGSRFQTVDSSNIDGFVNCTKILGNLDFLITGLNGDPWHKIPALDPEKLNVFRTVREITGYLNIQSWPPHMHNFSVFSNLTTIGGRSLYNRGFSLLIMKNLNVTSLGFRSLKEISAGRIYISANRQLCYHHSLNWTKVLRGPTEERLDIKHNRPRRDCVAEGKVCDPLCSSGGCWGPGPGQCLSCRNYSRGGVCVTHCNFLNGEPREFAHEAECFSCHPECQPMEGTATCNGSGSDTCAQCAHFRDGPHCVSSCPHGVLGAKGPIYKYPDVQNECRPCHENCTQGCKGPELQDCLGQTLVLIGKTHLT

B1: CL4 (structured_RNA)
RNA: GCCUUAGUAACGUGCUUUGAUGUCGAUUCGACAGGAGGC
modifications: 2'-fluoro pyrimidines
As for B1, the Kd in data set [1] stood at 10 nM. For the same molecule, in data set [2], the binding result was “no binding”.

Broadly, the Kd is the free concentration of one partner at which half of the binding sites on the other are occupied at equilibrium, for simple one-to-one binding.
